These results are taken from paper PMC9601964.

In the data set the target is T1, RihR (XRE-family regulator) (Azorhizobium caulinodans ORS571) (UniProt A8IKA5).
T1 sequence: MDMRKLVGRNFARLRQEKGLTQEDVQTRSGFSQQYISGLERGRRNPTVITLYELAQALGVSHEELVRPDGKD
Kind of data set: EMSA. The following applies: 50 mM Tris-HCl pH 8.3, 0.25 M KCl, 2.5 mM DTT, 5 mM MgCl2, 0.25 mg/mL BSA, 0.05 mg/mL poly(dI-dC), 2.5 mM EDTA, 1% glycerol; 20 uL, 20 min, room temperature; 6%. For orientation: Mobility shift assays separate free from complexed probe on a gel.

With “CGGAATTCATCGCGGTGGTATTTTTGCGAGGAAGGCCGCGTTGGAAAACGATAGTCGGTGCTCGTTCATGCCGGCAAATGAGAAGATCGCCCATAGGTATGCAAAAATGATATGATAACAGCTGACCAGCTTTAGCCCGTGCGGACGAGGGGGAGAGGATGCGTTTCAGTCATCTAGAGC (double strand) [non-specific control promoter (Pcontrol)]”, the binding result is listed as “no binding”.
